For one assay, the target named is EGFP-VopF (V. cholerae). Description: stepwise photobleaching of single-molecule speckles (TIRF, live cells); XTC cells with very low levels of EGFP-VopF or EGFP-VopL; speckles arrested with 10 nM latrunculin A; continuous 488-nm illumination; distribution of bleaching steps compared with a binomial model (probability of EGFP being fluorescent 0.75).
Assay [1] concerns the target EGFP-VopL (V. parahaemolyticus). Described as above.

One may read the stoichiometry N as a count of units in the complex or per binding partner. Turning to EGFP-VopF (natural protein), the stoichiometry N in the assay with EGFP-VopF (V. cholerae) stood at 2.

In assay [1], EGFP-VopL (natural protein) came in with a stoichiometry N of 2.

The values are drawn from paper PMC9674292.
